{"source": "paper PMC8816864", "about": "(Proteins, 2021)", "binders": {"B1": {"name": "HSP26 (GFP fusion) (natural protein, S. cerevisiae, UniProt P15992 1-214, looked up)", "chain": "MSFNSPFFDFFDNINNEVDAFNRLLGEGGLRGYAPRRQLANTPAKDSTGKEVARPNNYAGALYDPRDETLDDWFDNDLSLFPSGFGFPRSVAVPVDILDHDNNYELKVVVPGVKSKKDIDIEYHQNKNQILVSGEIPSTLNEESKDKVKVKESSSGKFKRVITLPDYPGVDADNIKADYANGVLTLTVPKLKPQKDGKNHVKKIEVSSQESWGN"}, "B2": {"name": "SSA2-GFP (natural protein)", "chain": "not shown"}, "B3": {"name": "HSP60 (GFP fusion) (natural protein, S. cerevisiae, UniProt P19882 26-572, looked up)", "chain": "ELKFGVEGRASLLKGVETLAEAVAATLGPKGRNVLIEQPFGPPKITKDGVTVAKSIVLKDKFENMGAKLLQEVASKTNEAAGDGTTSATVLGRAIFTESVKNVAAGCNPMDLRRGSQVAVEKVIEFLSANKKEITTSEEIAQVATISANGDSHVGKLLASAMEKVGKEGVITIREGRTLEDELEVTEGMRFDRGFISPYFITDPKSSKVEFEKPLLLLSEKKISSIQDILPALEISNQSRRPLLIIAEDVDGEALAACILNKLRGQVKVCAVKAPGFGDNRKNTIGDIAVLTGGTVFTEELDLKPEQCTIENLGSCDSITVTKEDTVILNGSGPKEAIQERIEQIKGSIDITTTNSYEKEKLQERLAKLSGGVAVIRVGGASEVEVGEKKDRYDDALNATRAAVEEGILPGGGTALVKASRVLDEVVVDNFDQKLGVDIIRKAITRPAKQIIENAGEEGSVIIGKLIDEYGDDFAKGYDASKSEYTDMLATGIIDPFKVVRSGLVDASGVASLLATTEVAIVDAPEPPAAAGAGGMPGGMPGMPGMM"}, "B4": {"name": "HSC82 (GFP fusion) (natural protein)", "chain": "not shown"}, "B5": {"name": "SSA1-GFP (natural protein)", "chain": "not shown"}, "B6": {"name": "HSP82 (GFP fusion) (natural protein)", "chain": "not shown"}, "B7": {"name": "eRF1-GFP (natural protein, S. cerevisiae, UniProt P12385 1-437, looked up)", "chain": "MDNEVEKNIEIWKVKKLVQSLEKARGNGTSMISLVIPPKGQIPLYQKMLTDEYGTASNIKSRVNRLSVLSAITSTQQKLKLYNTLPKNGLVLYCGDIITEDGKEKKVTFDIEPYKPINTSLYLCDNKFHTEVLSELLQADDKFGFIVMDGQGTLFGSVSGNTRTVLHKFTVDLPKKHGRGGQSALRFARLREEKRHNYVRKVAEVAVQNFITNDKVNVKGLILAGSADFKTDLAKSELFDPRLACKVISIVDVSYGGENGFNQAIELSAEALANVKYVQEKKLLEAYFDEISQDTGKFCYGIDDTLKALDLGAVEKLIVFENLETIRYTFKDAEDNEVIKFAEPEAKDKSFAIDKATGQEMDVVSEEPLIEWLAANYKNFGATLEFITDKSSEGAQFVTGFGGIGAMLRYKVNFEQLVDESEDEYYDEDEGSDYDFI"}}, "data": [{"biological_target": "T1, Flag-eRF1 (S. cerevisiae, UniProt P12385 1-437)", "assay": "co-IP + AUC", "values": [{"binder": "B1", "normalized AU-FDS intensity relative to SUP35-GFP (19S peak)": 0.087, "normalized AU-FDS intensity relative to SUP35-GFP (28S peak)": 0.12, "normalized AU-FDS intensity relative to SUP35-GFP (39S peak)": 0.056, "normalized AU-FDS intensity relative to SUP35-GFP (57S peak)": 0.052, "normalized AU-FDS intensity relative to SUP35-GFP (77S-200S)": 0.065}, {"binder": "B2", "normalized AU-FDS intensity relative to SUP35-GFP (19S peak)": 0.28, "normalized AU-FDS intensity relative to SUP35-GFP (28S peak)": 0.35, "normalized AU-FDS intensity relative to SUP35-GFP (39S peak)": 0.36, "normalized AU-FDS intensity relative to SUP35-GFP (57S peak)": 0.27, "normalized AU-FDS intensity relative to SUP35-GFP (77S-200S)": 0.38}, {"binder": "B3", "normalized AU-FDS intensity relative to SUP35-GFP (19S peak)": 0.069, "normalized AU-FDS intensity relative to SUP35-GFP (28S peak)": 0.11, "normalized AU-FDS intensity relative to SUP35-GFP (39S peak)": 0.1, "normalized AU-FDS intensity relative to SUP35-GFP (57S peak)": 0.11, "normalized AU-FDS intensity relative to SUP35-GFP (77S-200S)": 0.13}, {"binder": "B4", "normalized AU-FDS intensity relative to SUP35-GFP (19S peak)": 0.08, "normalized AU-FDS intensity relative to SUP35-GFP (28S peak)": 0.088, "normalized AU-FDS intensity relative to SUP35-GFP (39S peak)": 0.11, "normalized AU-FDS intensity relative to SUP35-GFP (57S peak)": 0.11, "normalized AU-FDS intensity relative to SUP35-GFP (77S-200S)": 0.083}, {"binder": "B5", "normalized AU-FDS intensity relative to SUP35-GFP (19S peak)": 0.29, "normalized AU-FDS intensity relative to SUP35-GFP (28S peak)": 0.37, "normalized AU-FDS intensity relative to SUP35-GFP (39S peak)": 0.28, "normalized AU-FDS intensity relative to SUP35-GFP (57S peak)": 0.28, "normalized AU-FDS intensity relative to SUP35-GFP (77S-200S)": 0.31}, {"binder": "B6", "normalized AU-FDS intensity relative to SUP35-GFP (19S peak)": 0.066, "normalized AU-FDS intensity relative to SUP35-GFP (28S peak)": 0.13, "normalized AU-FDS intensity relative to SUP35-GFP (39S peak)": 0.075, "normalized AU-FDS intensity relative to SUP35-GFP (57S peak)": 0.058, "normalized AU-FDS intensity relative to SUP35-GFP (77S-200S)": 0.027}]}, {"biological_target": "T1, Flag-eRF1", "assay": "co-IP + AUC", "remark": "another data set of the same source", "units": {"% abundance in the Flag-eRF1 pull-down normalized to SUP35 (19S-200S)": "%"}, "values": [{"binder": "B1", "% abundance in the Flag-eRF1 pull-down normalized to SUP35 (19S-200S)": "7.6 ± 2.9"}, {"binder": "B2", "% abundance in the Flag-eRF1 pull-down normalized to SUP35 (19S-200S)": "33 ± 3.45"}, {"binder": "B3", "% abundance in the Flag-eRF1 pull-down normalized to SUP35 (19S-200S)": "11 ± 0.75"}, {"binder": "B7", "% abundance in the Flag-eRF1 pull-down normalized to SUP35 (19S-200S)": "13 ± 4.5"}, {"binder": "B4", "% abundance in the Flag-eRF1 pull-down normalized to SUP35 (19S-200S)": "9.5 ± 3.5"}, {"binder": "B5", "% abundance in the Flag-eRF1 pull-down normalized to SUP35 (19S-200S)": "30 ± 0.63"}, {"binder": "B6", "% abundance in the Flag-eRF1 pull-down normalized to SUP35 (19S-200S)": "8.6 ± 2.9"}]}]}
